Experimental data taken from US20100272712.

System: active JNK3 purified protein (Upstate)

B1: Myc-MKP7 (enzyme, UniProt Q9BY84 1-665, looked up, species assumed)
chain: MAHEMIGTQIVTERLVALLESGTEKVLLIDSRPFVEYNTSHILEAININCSKLMKRRLQQDKVLITELIQHSAKHKVDIDCSQKVVVYDQSSQDVASLSSDCFLTVLLGKLEKSFNSVHLLAGGFAEFSRCFPGLCEGKSTLVPTCISQPCLPVANIGPTRILPNLYLGCQRDVLNKELMQQNGIGYVLNASNTCPKPDFIPESHFLRVPVNDSFCEKILPWLDKSVDFIEKAKASNGCVLVHCLAGISRSATIAIAYIMKRMDMSLDEAYRFVKEKRPTISPNFNFLGQLLDYEKKIKNQTGASGPKSKLKLLHLEKPNEPVPAVSEGGQKSETPLSPPCADSATSEAAGQRPVHPASVPSVPSVQPSLLEDSPLVQALSGLHLSADRLEDSNKLKRSFSLDIKSVSYSASMAASLHGFSSSEDALEYYKPSTTLDGTNKLCQFSPVQELSEQTPETSPDKEEASIPKKLQTARPSDSQSKRLHSVRTSSSGTAQRSLLSPLHRSGSVEDNYHTSFLFGLSTSQQHLTKSAGLGLKGWHSDILAPQTSTPSLTSSWYFATESSHFYSASAIYGGSASYSAYSCSQLPTCGDQVYSVRRRQKPSDRADSRRSWHEESPFEKQFKRRSCQMEFGESIMSENRSREELGKVGSQSSFSGSMEIIEVS
modifications: full-length Myc tag
B1 was tested, and the “in vitro phosphatase activity analysis (JNK3 phosphorylation by western blot)” value was “The ectopically-expressed MKP7 protein exhibited strong phosphatase activity as demonstrated by the decrease in JNK3 phosphorylation” and the “in vitro phosphatase activity analysis after GSNO treatment of MKP7” value was “nitrosylation of MKP7 by GSNO markedly inhibited MKP7 phosphatase activity”.

B2: Flag-tagged MKP7-WT (enzyme, UniProt Q9BY84 1-665, looked up, species assumed)
chain: MAHEMIGTQIVTERLVALLESGTEKVLLIDSRPFVEYNTSHILEAININCSKLMKRRLQQDKVLITELIQHSAKHKVDIDCSQKVVVYDQSSQDVASLSSDCFLTVLLGKLEKSFNSVHLLAGGFAEFSRCFPGLCEGKSTLVPTCISQPCLPVANIGPTRILPNLYLGCQRDVLNKELMQQNGIGYVLNASNTCPKPDFIPESHFLRVPVNDSFCEKILPWLDKSVDFIEKAKASNGCVLVHCLAGISRSATIAIAYIMKRMDMSLDEAYRFVKEKRPTISPNFNFLGQLLDYEKKIKNQTGASGPKSKLKLLHLEKPNEPVPAVSEGGQKSETPLSPPCADSATSEAAGQRPVHPASVPSVPSVQPSLLEDSPLVQALSGLHLSADRLEDSNKLKRSFSLDIKSVSYSASMAASLHGFSSSEDALEYYKPSTTLDGTNKLCQFSPVQELSEQTPETSPDKEEASIPKKLQTARPSDSQSKRLHSVRTSSSGTAQRSLLSPLHRSGSVEDNYHTSFLFGLSTSQQHLTKSAGLGLKGWHSDILAPQTSTPSLTSSWYFATESSHFYSASAIYGGSASYSAYSCSQLPTCGDQVYSVRRRQKPSDRADSRRSWHEESPFEKQFKRRSCQMEFGESIMSENRSREELGKVGSQSSFSGSMEIIEVS
modifications: full-length Flag tag
With B2 the “in vitro phosphatase assay (JNK3 phosphorylation by western blot)” value (shortened to “in vitro phosphatase assay”) was “Both MKP7-WT and MKP7-ΔC possessed strong phosphatase activities as detected by the decreased phosphorylation of JNK3”.

B3: Flag-tagged MKP7-ΔC (A.A.1-317, retaining the catalytic domain) (enzyme, UniProt Q9BY84 1-317, looked up, species assumed)
chain: MAHEMIGTQIVTERLVALLESGTEKVLLIDSRPFVEYNTSHILEAININCSKLMKRRLQQDKVLITELIQHSAKHKVDIDCSQKVVVYDQSSQDVASLSSDCFLTVLLGKLEKSFNSVHLLAGGFAEFSRCFPGLCEGKSTLVPTCISQPCLPVANIGPTRILPNLYLGCQRDVLNKELMQQNGIGYVLNASNTCPKPDFIPESHFLRVPVNDSFCEKILPWLDKSVDFIEKAKASNGCVLVHCLAGISRSATIAIAYIMKRMDMSLDEAYRFVKEKRPTISPNFNFLGQLLDYEKKIKNQTGASGPKSKLKLLHLE
modifications: Flag tag
For B3, the “in vitro phosphatase assay” value was “Both MKP7-WT and MKP7-ΔC possessed strong phosphatase activities as detected by the decreased phosphorylation of JNK3”.

B4: Flag-tagged MKP7-ΔC (C244S) (enzyme, UniProt Q9BY84 1-317 with C244S, looked up, species assumed)
chain: MAHEMIGTQIVTERLVALLESGTEKVLLIDSRPFVEYNTSHILEAININCSKLMKRRLQQDKVLITELIQHSAKHKVDIDCSQKVVVYDQSSQDVASLSSDCFLTVLLGKLEKSFNSVHLLAGGFAEFSRCFPGLCEGKSTLVPTCISQPCLPVANIGPTRILPNLYLGCQRDVLNKELMQQNGIGYVLNASNTCPKPDFIPESHFLRVPVNDSFCEKILPWLDKSVDFIEKAKASNGCVLVHSLAGISRSATIAIAYIMKRMDMSLDEAYRFVKEKRPTISPNFNFLGQLLDYEKKIKNQTGASGPKSKLKLLHLE
modifications: Flag tag
B4 was tested, and the “in vitro phosphatase assay” value was “the phosphatase activity of MKP7-ΔC (C^244S) was much lower than that of MKP7-WT or MKP7-ΔC protein, and the activity after GSNO treatment was essentially unchanged”.
